Measured values as given in patent US20230167458A1, “FORSKOLIN-INDUCIBLE PROMOTERS AND HYPOXIA-INDUCIBLE PROMOTERS” (ASKLEPIOS BIOPHARMACEUTICAL, INC., priority 2020, published 2023).

How the values were obtained:
HEK293-F = assay: Luciferase time course after forskolin induction, transient transfection of suspension HEK293-F; format: cell-based, human; conditions: 20 µM forskolin
Experimental: The tested promoters were synthesised directly upstream of the ATG of PM-RQ plasmid and the suspension cell lines were transiently transfected with the PM-RQ plasmid.
40 ml of cells were grown in a 250 ml vented Erlenmeyer flask (Sigma-Aldrich CLS431144) at 37° C., 20% O2, 8% CO2 with agitation at 100 rpm. Cells were seeded as described in the manufacturer's instructions (300,000 cells/ml). HEK293-F were obtained from Thermofisher, R79007.
One day before transfection, the cells were counted using a haemocytometer and split to 500,000 cells/ml.
On the day of transfection, the cells are seeded to 1,000,000 cells/ml in 500 μl of appropriate medium (Freestyle 293 expression medium, 12338002) in a 24 well plate. […] of DNA per well was then added to 10 μl of OptiMem medium (Thermofisher; 11058021) and incubated for 5 minutes at room temperature.
Concurrently, 0.625 μl of Max reagent (Thermofisher, 16447100) was made up to 10 μl by addition of OptiMem and incubated for 5 minutes at room temperature. After this incubation, both mixes were added to the same tube and incubated at room temperature for 25-30 minutes. […]
24 hours after transfection, the promoters were induced by addition of […] forskolin and luciferase activity was measured 0, 3, 5 and 24 hours after induction. Luciferase activity was measured as previously described.

CHO-GS-KSV1 cell line = assay: SEAP expression in stably transfected CHO-GS-KSV1, forskolin or NKH477 induction; format: cell-based, chinese hamster; conditions: stable CHO-GS-KSV1, SEAP, forskolin or NKH477
Experimental: The forskolin-inducible promoters were then tested in a stably transfected CHO-GS-KSV1 cell line.
• CD-CHO media (Life technologies, CAT #10743029) • Corning 125 mL Polycarbonate Erlenmeyer Flask with Vent Cap (CAT #734-1885). • Gene Pulser® Electroporation Cuvettes, 0.4 cm gap (BioRad, CAT #165-2088) • Gene Pulser Xcell Total System (BioRad, CAT, #1652660) • GS-vector DNA ([…] in 100 μL TE buffer) linearised with Sca1 • Suspension cultures of CHOK1SV GS-KO host cells.
Cell suspensions of 6×10^5 cells per mL were incubated on an orbital shaker set at 8% CO2, 20% O2, 37° C., 85% relative humidity and 140 rpm overnight. 2.86×10^7 cells were centrifuged at 200 g for 3 minutes. Media was then aspirated and cell pellet resuspended in 2 mL fresh CD-CHO media to obtain a concentration of 1.43×10^7 cells per mL. 700 μL of cell suspension was added to each of two electroporation cuvettes each containing […] of linearised DNA in 100 μL of sterile TE buffer (Thermofisher, 12090015). Each cuvette was electroporated, delivering a single pulse of 300V, […] with resistance to infinity. Immediately after delivery of pulse electroplated cells were transferred to Erlenmeyer 125 mL flask containing 20 mL of CD-CHO media pre-warmed to 37° C. Electroporated cells from two cuvettes are combined into a single 125 mL flask to generate one pool of cells. Cells are cultured on an orbital shaker set at 8% CO2, 20% O2, 37° C., 85% relative humidity and 140 rpm. Cells are transferred to fresh CD-CHO media 24 hours after transfection and cell cultures monitored and given fresh CD-CHO media every 2-4 days. Usually after about 10-14 days cell numbers will be high enough to start passaging.
The transfected DNA was the pXC-17.4 expression vector (Lonza Biologics plc) where one of the promoter constructs (or a control promoter (CMV-IE) have been cloned upstream of the secreted alkaline phosphatase (SEAP) gene, which had been cloned into the multiple cloning site within the vector expression cassette. Promoters were closed into the pXC-17.4 vector using Gibson assembly. The pXC-17.4 expression vector is designed for making stable cell lines in the CHO-GSK1SV cell line as it contains the […] gene which has been knocked out of the cell line. Therefore, selection of cells in glutamine drop-out medium will select for cells that have stably integrated the plasmid.
The responsiveness of the RTV-019 promoter to different concentrations of forskolin and […] was tested in the stably transfected CHO-GS-KSV1 cell line. To this end, the stably transfected CHO-GS cells were seeded at 500,000 cells/ml and allowed to grow for 24 hrs. At this point the cells were induced by addition of the respective concentrations of forskolin and NKH477 and SEAP expression was measured as described below after 24 hours.
The promoter activity and inducibility of FMP-02, FORCYB-001, RTV-017, FORCSV-10, FOR-CMC-009, FLP-01 and RTV-019 were also tested in the stably transfected CHO-GS-KSV1 cell line. To this end, the stably transfected CHO-GS cells were seeded at 500,000 cells/ml and allowed to grow for 24 hrs. At this point the cells were exposed to […] forskolin or […] NKH477 for 24 hours. After this point, the SEAP activity in the medium was assessed as described below.
SEAP Reporter Gene Assay, chemiluminescent (Roche, CAT #11 779 842 001) was used to measure SEAP activity as per the manufacturer's protocol. All reagents and samples were fully pre-equilibrated at room temperature. Culture supernatant was collected from the stably transfected CHO-GS at the specific time points (0 h and 24 h). The supernatant was diluted 1:4 in dilution buffer and heat treated at 65° C. for 30 minutes. The heat-treated sample was then centrifuged for 30 s at maximum speed. 50 μl of the heat-treated sample was then added to 5 μl of inactivation buffer and incubated for 5 min at room temperature. 50 μl of substrate reagent was then added and incubated for 10 min at room temperature. […]

B1: FMP-02: synthetic forskolin-inducible promoter, SEQ ID NO: 41; 8× AP1(1) TFBS and MinTK minimal promoter (nucleic acid)
DNA: TGAGTCAGATGATGCGTAGCTAGTAGTTGAGTCAGATGATGCGTAGCTAGTAGTTGAGTCAGATGATGCGTAGCTAGTAGTTGAGTCAGATGATGCGTAGCTAGTAGTTGAGTCAGATGATGCGTAGCTAGTAGTTGAGTCAGATGATGCGTAGCTAGTAGTTGAGTCAGATGATGCGTAGCTAGTAGTTGAGTCAGTAGTCGTATGCTGATGCGCAGTTAGCGTAGCTGAGGTACCGTCGACGATATCGGATCCTTCGCATATTAAGGTGACGCGTGTGGCCTCGAACACCGAGCGACCCTGCAGCGACCCGCTTAA
modifications: Synp-FMP-02
notes: 8× AP1(1) TFBS and MinTK minimal promoter
relative rank of promoter (fold induction/strength) (HEK293-F): weakest
relative rank of promoter strength (CHO-GS-KSV1 cell line): weakest
